Experimental data published in article doi:10.1101/2021.03.29.435803.

Target: HA-FBXW7 (UniProt Q8VBV4)
Assay: FLAG IP, HA immunoblot
Details: reference: wild type

| Substance | binding against the reference (sites T243,S247) | binding against the reference (sites T171,S175) |
| --- | --- | --- |
| KLF2 (from UniProt Q60843) 2A C (T243A/S247A) | weaker |  |
| KLF2 (from UniProt Q60843) 2A N (T171A/S175A) |  | weaker |
